# B1: Exo-β-N-acetylmuramidase NamZ of Bacillus subtilis 168, recombinant, C-terminal His6-tag fusion protein (enzyme)
# chain: SPDSKNQTAKKPKVQTGIDTLLPDYKKQLKGKRIGLITNPAGVNTSLKSSVDILYENPDIKLTALFGPEHGVRGDAQAGDEVGSYIDEKTGVPVYSLYGKTKKPTPEMLKNVDILMFDIQDVGTRFYTYIYTMAYAMEAAKENGIPFMVLDRPNPQGGNHIEGPILEPEYASFVGLYPIPLKHGMTIGELASLFNKEFSIDADLTVVKMKHWKRKMDFDDTRLPFVLPSPNMPTVESTFVYPATGLIEGTNISEGRGTTKPFELIGAPFIKSTELEETLNSLHLPGVTFRAASFTPTFSKHQGTLCHGVQLYVTDRDKFEAVKTGLSVIKTIHDLYPEDFEFLSTGSFDKLAGNGWIRTKIENGTSVENIINSYEKTLQQFSKTRKKYLIY
# Target: the molecule itself
# Test: SEC-MALS
protein,measurement,value
B1,stoichiometry N,2
